Data on 5 molecules can be found in paper doi:10.1101/2024.09.18.613542 (bioRxiv, 2024).

Read-outs that look alike come from different tables or passages of the source.

Holding throughout (test): ELISA
(An ELISA detects its analyte on a solid surface through an enzyme-linked reagent.)

One assay concerns the target T1, 8His-TEV-RoxP_1 (Cutibacterium acnes KPA171202).
T1 chain: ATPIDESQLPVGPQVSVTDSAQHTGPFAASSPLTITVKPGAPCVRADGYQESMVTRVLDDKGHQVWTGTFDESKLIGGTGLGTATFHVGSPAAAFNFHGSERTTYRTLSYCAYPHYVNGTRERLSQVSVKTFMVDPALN

The next assay deals with T2, RoxP_11-tagless (Cutibacterium porci (WP_154564006.1)).
T2 chain: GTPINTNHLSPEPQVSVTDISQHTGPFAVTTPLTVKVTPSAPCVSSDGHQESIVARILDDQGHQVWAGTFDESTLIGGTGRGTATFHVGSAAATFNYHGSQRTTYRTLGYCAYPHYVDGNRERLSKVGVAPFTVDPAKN

Assay [1] addresses T3, endogenous RoxP secreted by C. acnes strain ATCC 6919 (Cutibacterium acnes ATCC 6919 …, UniProt Q6A6F6, strain).
Assay [2] addresses T4, endogenous RoxP secreted by C. acnes strain KPA171202 (Cutibacterium acnes KPA171202, UniProt Q6A6F6).
For assay [3], the target named is T3, endogenous RoxP secreted by C. acnes …. This is another data set of the same source.
For assay [4], the target named is T4, endogenous RoxP secreted by C. acnes …. This is another data set of the same source.

B1: 4D8H1 (antibody, V domains shown)
VH: EVKLLESGGGLVQPGGSLKLSCAASGFDFSRYWMSWVRQAPGKGLEWIGEINPDSSTINYTPSLKDKFIISRDNAKNTLYLQMSKVRSEDTALYYCARYYSRFAYWGQGTLVTVSA
VL: QAVVTQESALTTSPGETVTLTCRSSTGAVTTRNYANWVQEKPDHLFTGLIGDTNNRAPGVPARFSGSLIGDKAALTITGAQTEDEAIYFCALWYSNHWVFGGGTKLTVL
Turning to B1, the binding result in the assay with 8His-TEV-RoxP_1 is “binds”; with RoxP_11-tagless, “no binding (tested: 155 ng/mL)”; in assay [1], “binds”; in assay [2] it was “binds”.

B2: 2H2F3 (antibody, V domains shown)
VH: QVQLQQSGAELVRPGVSVKISCKGSGYTFTDYAMHWVKQSHAKSLEWIGIISTYYGNASYNQKFKGKATMTVDKSSSTAYMELARLTSEDSAIYYCARVPYYGSSYAMDYWGQGTSVTVSS
VL: DVLMTQTPLSLPVSLGDQASISCRSSQNIVHSDGNTYLEWYLQKPGQSPKLLIYKVSNRFSGVPDRFSGSGSGTDFTLKISRVEAEDLGVYYCFQGSHVPWTFGGGTKLEIK
Regarding B2, the binding result with 8His-TEV-RoxP_1 is reported as “binds”.

B3: 5F3D11 (antibody, V domains shown)
VH: not shown
VL: DVVMTQTPLSLPVSLGDQASISCRSSQSLVHSNGNTYLHWYLQKPGQSPKLLIYKVSNRFSGVPDRFSGSGSGTDFTLKISRVEAEDLGVYFCSQSTHVPPTFGGGTKLEIK
With B3, the binding result with 8His-TEV-RoxP_1 is “binds”.

B4: biotinylated-2H2F3 (antibody, V domains shown)
VH: QVQLQQSGAELVRPGVSVKISCKGSGYTFTDYAMHWVKQSHAKSLEWIGIISTYYGNASYNQKFKGKATMTVDKSSSTAYMELARLTSEDSAIYYCARVPYYGSSYAMDYWGQGTSVTVSS
VL: DVLMTQTPLSLPVSLGDQASISCRSSQNIVHSDGNTYLEWYLQKPGQSPKLLIYKVSNRFSGVPDRFSGSGSGTDFTLKISRVEAEDLGVYYCFQGSHVPWTFGGGTKLEIK
As to B4, the binding result in assay [3] and in assay [4] was “binds” in each case.

B5: 3E10E3 (antibody, V domains shown)
VH: QVTLKESGPGILQPSQTLSLTCSFSGFSLSTYGIGVGWIRQPSGKGLEWLAHIWWNDNKYYNTALKSRLTISKDTSNNQVFLKIASVDTADTATYYCARSLPYFDYWGQGTTLTVSS
VL: DIQMTQSPASLSASVGETVTITCRASENIYSYLAWYQQKQGKSPQFLVYNAKTLAEGVPSRFSGSGSGTQFSLKINSLQPEDFGSYYCQHHYGIPRTFGGGTKLEIK
For the molecule B5, the binding result with 8His-TEV-RoxP_1 and with RoxP_11-tagless was “binds” each time.
